Laboratory results taken from the MegaScale stability set (Tsuboyama et al. 2023).

B1: HEEH_KT_rd6_0007 (parent)
chain: SIEEEIKKAEEAKEKGKTFIHGDFVATTEELLDELLKRLRKKL

Variants of: B1
Experiment: folding stability dG (cDNA display proteolysis); higher = more stable
Details: PBS, room temperature

Folding stability dG [kcal/mol]: each site, then its substitutions
L39: G -0.429; A 0.168; K 0.102; R 0.516; S 0.093; W 0.902; V 0.079; T -0.05
K17: I 1.59; P 0.793; D 1.19; A 1.23; W 1.84; F 1.82; N 1.36; L 1.9; V 1.43; Y 1.71; S 1.18; E 1.67
K42: D 0.935; A 1.42; G 0.621; M 1.74; H 1.1; S 1.13; E 1.23; I 1.59; L 1.82
D23: F 1.48; H 1.02; K 1.06; Y 1.3; W 1.64; R 0.773; P 0.958; C 1.91
I20: P 0.732; D 0.774; V 1.27; K 0.994; Q 1.27; Y 1.02; W 1.13; M 0.979; G 0.637; C 2.04; H 0.961; N 0.801
F19: T 0.77; S 0.618; K 0.811; W 0.964; M 0.895; P 0.637; N 0.745
E29: A 1.63; W 1.78; G 1.32; D 1.21; M 1.63; R 1.62; Q 1.41; S 1.46
K15: V 0.735; H 1.3; G 1.08; T 1.29
A9: P 0.556; C 1.78; W 0.879; N 0.608; L 1.44; R 0.739; I 1.5; V 1.68
T28: G 0.966; H 0.534; W 1.19; M 1.34; N 1.09; E 0.679; V 1.17; L 1.3; D 0.797
F24: D 0.649; W 1.22; Y 1.02; H 0.746; C 1.49; R -0.367; S 0.627
E3: W 1.7; T 1.04; N 0.919; P 0.866; Y 1.28; D 1.01; A 1.27
I6: T 0.576; E 0.593; F 0.542; H 0.603; A 0.662; D 0.648; W 0.615; N 0.587; L 1.04; G 0.684; K 0.651
G22: T 0.814; K 0.822; S 0.873; V 1.09; A 0.902; H 1.02; I 1.45; P 0.931; Q 0.893
R40: M 0.877; N 0.359; C 1.31; G 0.155; P -0.336; K 0.773; F 1.1; D -0.199
V25: M 1.18; I 1.41; F 1.31; K 0.938; N 0.974; G 0.704
T27: C 1.76; F 1.55; S 1.57; N 1.98; W 1.66; A 1.27; M 1.17; Q 0.865; D 2.16; P 0.51
E30: P 0.673; Y 1.15; K 1.24; T 1.09; F 1.13; N 0.882; C 1.63; R 1.19; M 1.05
K41: T 1.04; F 0.949; D 1.1; Y 0.949; N 1.11; G 0.924; S 1.12; R 1.54; I 1.2; W 1.08; M 1.38; L 1.42
L35: R 0.542; A 0.494; K 0.309; M 0.714; Q 0.486; D 0.12
L36: Y 0.652; Q 0.304; E -0.06; W 0.856; D -0.448; P -0.108; F 0.757
K7: G 0.824; C 1.38; E 0.935; S 0.891; A 1.31; M 1.16; Q 1.25; H 1.06; L 1.14
E11: R 0.941; P 0.576; Y 1.17; D 1.27; N 0.868; F 0.946; V 0.953; T 1.04
K13: S 0.704; I 0.852; R 1.3; E 0.58; Q 0.869; Y 1.07; L 1.16; C 1.82; M 1.01
R38: T 1.15; N 0.87; G 0.522; Y 2.01; F 1.83; A 1.37; V 1.37
E34: T 1.02; C 1.64; K 1.11; Q 1.17; R 1.2
L43: D 0.207; T 0.533; N 0.566; G 0.444; V 0.562
H21: D 0.707; Y 1.76; W 1.78; E 0.742; T 0.971; S 1.39; L 1.29; K 0.812
K37: H 1.07; A 1.5; M 1.4; F 0.924; Q 1.37; G 0.864; S 1.21
I2: L 1.47; N 0.583; V 1.08; A 0.756; H 0.643; T 0.763; G 0.715
E10: H 0.9; F 1.07; V 1.17; C 1.49; G 0.706; S 0.844; R 1.02; M 1.44
E5: P 0.677; V 2.13; W 2.01; A 2.05; K 1.06; S 1.31; F 1.74; D 1.23
L32: V 0.661; M 0.752; D 0.374; H 0.393; S 0.285; K 0.345; T 0.441
S1: I 0.975; D 1.24; T 1.28; M 1.16; H 1.13; W 1.78; K 1.14
A12: V 0.505; L 0.688; F 0.689; G 0.482; D 0.737; E 0.703; R 0.639
E14: Q 1.42; Y 1.33; L 1.58; G 1.19; N 1.21; M 1.42; W 1.37; P 0.587; K 1.56
K8: E 0.75; S 0.904; A 1.21; F 0.758; D 0.721; I 0.785; M 1.26; T 0.724
E4: H 1.06; F 1.03; C 1.78; N 1.02; G 0.862; V 0.909; T 0.909; Y 1.06
T18: S 1.21; E 1.12; R 1.09; W 1.76
G16: K 1.3; D 0.785; R 0.873; Q 0.935; W 1.3; E 0.895; P 0.298
A26: M 0.854; I 1.27; V 0.954; D 0.604; E 0.506; H 0.502
D33: P -0.325; M 1.17; L 1.23; N 1.27; K 1.23; A 1.22; R 1.37; I 1.35
L31: I 0.938; G 0.74; K 0.756; T 0.882; P 0.452
